From the supplement of paper PMC9170038

Tested on: MS2 coat protein
Assay: apparent KD of MS2 coat protein; designed switch direction (-1 OFF switch, 1 ON switch): -1; higher = weaker reporter binding
Outline: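 Normalised cluster fluorescence was curve-fitted, and each design's median over clusters is its apparent KD. Before this, SNAP-549-labelled MS2 coat protein was titrated from 0.7 or 1.5 nM, doubling to 3 µM, over RNA switches transcribed on Illumina chips by stalled E. coli RNA polymerase. Titrations had no input, 200 uM small-molecule ligand, or an oligonucleotide input, and steps lasted 0.8–1.5 h (lowest) to 10–20 min (highest).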

[1] = Eterna round: R95, input ligand: FMN 200 uM
[2] = Eterna round: R95, input ligand: microRNA oligo, concentration not stated
[3] = Eterna round: R95, input ligand: none
[4] = input ligand: microRNA oligo, concentration not stated

Sequence: AAAAAACAUGAGGAUCACCCAUGUCAGGAUAUCCGAAAAGAAAAGAAAAAGAAAAAAGGGAGAAGGGACAAAAA [April's ex-date #2] (puzzle: Exclusion 1)
- apparent KD of MS2 coat protein [1]: 0.0505 µM
- apparent KD of MS2 coat protein [2]: 0.042 µM
- apparent KD of MS2 coat protein [3]: 0.033 µM

Sequence: CCAUGUUAGCAGGAUAUGCAAUUAUUCUUUUAAGCAGAAGGGCUUACAUGAGGAUCACCCAUGUAACAUUUCAU [JR_E6_Sub081] (puzzle: Exclusion 6)
- apparent KD of MS2 coat protein [2]: 0.0173 µM

Sequence: AUAUACGGAGGAUAUACUUGAGGAUCACCCAAGUGGAAUCCCGUUUGGGCGGUAAAUAGUAGAAGGCCGACCCA [jl-ex3-4.42 ViennaUCT mod] (Eterna round: R97, puzzle: Exclusion 3)
- apparent KD of MS2 coat protein (input ligand: FMN 200 uM): 0.0177 µM
- apparent KD of MS2 coat protein (input ligand: none): 0.0163 µM

Sequence: AAUAACAGAGGAUAUACUAUUUUAUGUAUUUAUUAUUUUGAACAUGAGGAUCACCCAUGUAGAAGGCUGAAUAA [JMF 20] (puzzle: Exclusion 2)
- apparent KD of MS2 coat protein [2]: 0.0199 µM

Sequence: ACACCGCAAGGAUAUACUUGCGGUGGUGUUCGAAGCUUUCUACUUGAGGAUCACCCAAGUAGAAGGUGCGGUGU [jl-ex2.4.73 ViennaUCT mod] (Eterna round: R97, puzzle: Exclusion 2)
- apparent KD of MS2 coat protein (input ligand: FMN 200 uM): 0.0128 µM
- apparent KD of MS2 coat protein (input ligand: none): 0.0123 µM

Sequence: AUGCUCAUAGGAUAUAGAUUGAUUCACAUGAGGAUCACCCAUGUAAACUCUACUUUUUAACUAGAAGGAUGUUUUU [JR_E5_Sub018] (puzzle: Exclusion 5)
- apparent KD of MS2 coat protein [2]: 0.0253 µM

Sequence: GGAUCGUAUGUCAGGAUAUACCACUGGAUACAGUGGUAGAAGGGACAUGAGGAUCACCCAUGUUCUAUCGAUCC [Fiskers BMX 4 - 53] (puzzle: Brourd's mod of Exclusion 4)
- apparent KD of MS2 coat protein [2]: 0.0125 µM

Sequence: AAAUCUGCUGAGGAUAUGAUGACUGAGAGGUCAUCAGAAGGCGGUACAUGAGGAUCACCCAUGUCUAUGGGCAA [Ex-6 Malc#30] (puzzle: Exclusion 6)
- apparent KD of MS2 coat protein [2]: 0.243 µM

Sequence: GGUACUCAAAGAGUACCAAUACGAACAUGAGGAUCACCCAUGUAGGAUAUGCUACUCAAAGAGUAGCAGAAGGAUAUGAUGGAU [Far Half Aptamer v15] (Eterna round: R96, puzzle: Exclusion NG 3)
- apparent KD of MS2 coat protein (input ligand: FMN 200 uM): 0.0602 µM
- apparent KD of MS2 coat protein [4]: 0.0192 µM
- apparent KD of MS2 coat protein (input ligand: none): 0.0342 µM

Sequence: AAUAGUCAAGUUAGGAUAUUGCACCAGUGAUGGACCAAGAAGGAACAUGAGGAUCACCCAUGUGAACUCACGAC [Eternabot (Original) Solution 3] (Eterna round: R97, puzzle: Brourd's mod of Exclusion 4)
- apparent KD of MS2 coat protein (input ligand: FMN 200 uM): 0.344 µM
- apparent KD of MS2 coat protein (input ligand: none): 0.0408 µM

Sequence: UACACGGUAGGAUAUACGUAGAUGCAGGUUCGUGUGGUGCUACAUGAGGAUCACCCAUGUAGAAGGGCCAACGU [Mod 6 R3 JL-ex2-2.29 - Jieux - Exclusion 2] (Eterna round: R97, puzzle: Exclusion 2)
- apparent KD of MS2 coat protein (input ligand: FMN 200 uM): 0.0151 µM
- apparent KD of MS2 coat protein (input ligand: none): 0.0131 µM

Sequence: CCUCUACAUGAGGAUCACCCAUGUGAGGAUAUCAAAGCCAGAACGGAUCUCUGGCCCAUGAGAAGGUGCAUGGA [EX1 A.2] (Eterna round: R97, puzzle: Exclusion 1)
- apparent KD of MS2 coat protein (input ligand: FMN 200 uM): 0.119 µM
- apparent KD of MS2 coat protein (input ligand: none): 0.0223 µM

Sequence: AGAUGUAGAUUCCGAUCCUACAUGAGGAUCACCCAUGUAGCUAGACGUGCGGGCGGCGCUCGUCGGACUACCAGUAG [salish99_TOv1_r3_096] (puzzle: Sensor v3, turn-off variant 1)
- apparent KD of MS2 coat protein [1]: 0.0535 µM
- apparent KD of MS2 coat protein [2]: 0.0698 µM
- apparent KD of MS2 coat protein [3]: 0.0846 µM

Sequence: AAGAAAGGUGACAUGGGUGACAUGAGGAUCACCCAUGUUACAAGCUUGUUGCUCGUCUUAUAAUUAACCCAUGUCAU [LRO Sensor-off var1-19 mod of Stov1-13-A1 by Brourd] (Eterna round: R97, puzzle: Sensor, turn-off variant 1)
- apparent KD of MS2 coat protein (input ligand: FMN 200 uM): 0.0553 µM
- apparent KD of MS2 coat protein (input ligand: none): 0.0646 µM

Sequence: CGGUGCUGAGGAUAUACAUGAGGAUCACCCAUGUGUUCCAGCUAGGUGACUGGCGGAUGUAGAAGGCGGUACUG [JL-ex3-3.39 Brourd mod] (puzzle: Exclusion 3)
- apparent KD of MS2 coat protein [1]: 0.245 µM
- apparent KD of MS2 coat protein [2]: 0.0312 µM
- apparent KD of MS2 coat protein [3]: 0.0648 µM

Sequence: CAGUAUCUAGGAUAUACGCUGGGUACUAUUCUCAAGUCAGGACAUGAGGAUCACCCAUGUAGAAGGAGAAGCAU [EX2 A.28] (Eterna round: R97, puzzle: Exclusion 2)
- apparent KD of MS2 coat protein (input ligand: FMN 200 uM): 0.0325 µM
- apparent KD of MS2 coat protein (input ligand: none): 0.034 µM

Sequence: CCUGCGGACAAAGGAUAUUGCGGUGACCGGCUCGGCGUACCGAGCCUACAUGAGGAUCACCCAUGUAAGAAGGUUGUCGCUGGU [JL ViennaUCT Qudice mod 2] (Eterna round: R96, puzzle: Exclusion NG 2)
- apparent KD of MS2 coat protein (input ligand: FMN 200 uM): 0.104 µM
- apparent KD of MS2 coat protein [4]: 0.0191 µM
- apparent KD of MS2 coat protein (input ligand: none): 0.0248 µM

Sequence: UUAAAUCAUGUAGGAUAUGCGUGGCGAAGCUAUGCAGAAGGACAUGAGGAUCACCCAUGUGCUUGCGUCUGCGUACAGAUGCUA [JL ENG1 1.12] (Eterna round: R96, puzzle: Exclusion NG 1)
- apparent KD of MS2 coat protein (input ligand: FMN 200 uM): 0.112 µM
- apparent KD of MS2 coat protein [4]: 0.0528 µM
- apparent KD of MS2 coat protein (input ligand: none): 0.0637 µM

Sequence: AGUUGGCGAGGAUAUACAUGAGGAUCACCCAUGUGAUAUUAAAGUGAGGAAAUGAAAAGUAGAAGGCGCUGACA [Mod of Mat 24 - Jieux - Exclusion 3] (Eterna round: R97, puzzle: Exclusion 3)
- apparent KD of MS2 coat protein (input ligand: FMN 200 uM): 0.662 µM
- apparent KD of MS2 coat protein (input ligand: none): 0.0473 µM

Sequence: GUGAAACAUGAGGAUCACCCAUGUGAGGAUAUGAUACUAUGUACUUCGGUACAUAGUAUCAGAAGGCACAGUGA [Ex1-3: 6] (puzzle: Exclusion 1)
- apparent KD of MS2 coat protein [2]: 0.0654 µM

Sequence: AAGAUGCGGAUAGGAUAUGGAAAAAAAAAAAAAUUAGAAGGGUUGGUUAAAAUACAUGAGGAUCACCCAUGUGAAUCAUGAGAA [AK ExNG1-2.1] (Eterna round: R96, puzzle: Exclusion NG 1)
- apparent KD of MS2 coat protein (input ligand: FMN 200 uM): 0.159 µM
- apparent KD of MS2 coat protein [4]: 0.127 µM
- apparent KD of MS2 coat protein (input ligand: none): 0.159 µM

Sequence: AGUGCGUAUGUGAGGAUAUGCUGGUCCUUGGAUCGGCAGAAGGUACAUGAGGAUCACCCAUGUGGUGUCGUUCU [salish99_Bmod_ex4_104] (puzzle: Brourd's mod of Exclusion 4)
- apparent KD of MS2 coat protein [1]: 0.094 µM
- apparent KD of MS2 coat protein [2]: 0.409 µM
- apparent KD of MS2 coat protein [3]: 0.261 µM

Sequence: CGGUGCUGAGGAUAUACAUGAGGAUCACCCAUGUGUUCCAGCUAGGUGACUGGCAAAUGUAGAAGGCGGUACUG [JL-ex3-3.36 Brourd mod] (puzzle: Exclusion 3)
- apparent KD of MS2 coat protein [1]: 0.0407 µM
- apparent KD of MS2 coat protein [2]: 0.0777 µM
- apparent KD of MS2 coat protein [3]: 0.105 µM

Sequence: ACAAGCUUUUAGAUUUUCAACAUGAGGAUCACCCAUGUUCGUCUUAGGCUAGUGCGAGUGCGGUGUACUCGUAUUAG [JL TOV1 3.84 sellena mod] (Eterna round: R97, puzzle: Sensor, turn-off variant 1)
- apparent KD of MS2 coat protein (input ligand: FMN 200 uM): 0.0182 µM
- apparent KD of MS2 coat protein (input ligand: none): 0.0164 µM

Sequence: GGCAUGCAAGGAUAUACUUACAGUGAUGUUCGAAUAAGUCUACUUGAGGAUCACCCAAGUAGAAGGUGCAUGCC [Exclusion 2 (Mod3.1 JL EX2 4.74 Vienna UCT mod of Mamaed)] (Eterna round: R97, puzzle: Exclusion 2)
- apparent KD of MS2 coat protein (input ligand: FMN 200 uM): 0.0628 µM
- apparent KD of MS2 coat protein (input ligand: none): 0.016 µM

Sequence: GUAGAGUGAGGAUAUACAAGAUCGAUAGAUCGGCGAUCCAUACAUGAGGAUCACCCAUGUAGAAGGCACUCUAC [Mat - Exclusion 2 - Eli Mod - D7] (Eterna round: R97, puzzle: Exclusion 2)
- apparent KD of MS2 coat protein (input ligand: FMN 200 uM): 0.218 µM
- apparent KD of MS2 coat protein (input ligand: none): 0.0835 µM
